B1: Lsm 169N (MBP fusion) (domain or fragment, human, UniProt P83369 1-169, looked up)
chain: MEERERGARSAGAGSPARPPSPRLDVSSDSFDPLLALYAPRLPPIPYPNAPCFNNVAEYESFLRTGVRGGGRGRGRARGAAAGSGVPAAPGPSGRTRRRPDAPAPDPERIQRLRRLMVAKEEGDGAAGAGRRGPGRSRKAPRNVLTRMPLHEGSPLGELHRCIREGVKV
B2: FLASH 138N (domain or fragment, human, UniProt Q9UKL3 29-138, looked up)
chain: SLDIYAGLDSAVSDSASKSCVPSRNCLDLYEEILTEEGTAKEATYNDLQVEYGKAQLQMKELMKKFKEIQTQNFSLINENQSLKKNISALIKTARVEINRKDEEISNLHQ
B3: FLASH 159N (domain or fragment, human, UniProt Q9UKL3 1-159, looked up)
chain: MAADDDNGDGTSLFDVFSASPLKNNDEGSLDIYAGLDSAVSDSASKSCVPSRNCLDLYEEILTEEGTAKEATYNDLQVEYGKAQLQMKELMKKFKEIQTQNFSLINENQSLKKNISALIKTARVEINRKDEEISNLHQRLSEFPHFRNNHKTARTFDTV

In one experiment the target is T1, MiniFLASH (human, UniProt Q9UKL3 1-138; Q9UKL3 1931-1982).
T1 sequence (looked up): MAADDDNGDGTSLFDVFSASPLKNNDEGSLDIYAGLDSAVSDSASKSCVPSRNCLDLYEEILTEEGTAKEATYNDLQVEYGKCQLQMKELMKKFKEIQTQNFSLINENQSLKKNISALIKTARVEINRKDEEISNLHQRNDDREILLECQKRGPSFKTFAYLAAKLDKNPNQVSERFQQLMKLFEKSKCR
In words: HDX-MS.

The target in the experiment “Lsm 169N (MBP fusion)” is B1. In words: HDX-MS.

As to B1, in the experiment with MiniFLASH, the binding result is recorded as “binds”.

Turning to B2, the binding result with Lsm 169N (MBP fusion) was “binds”.

In the case of B3, the binding result in the experiment with Lsm 169N (MBP fusion) was “binds”.

For the origin of these results see PMC4847949 (Journal of molecular biology, 2016).
